Experimental data: patent publication EP4591887A1, “GPC3 ANTIBODY-DRUG CONJUGATE AND USE THEREOF” (priority 2022, dated 2024)

Experiments:
human GPC3 (Glypican-3) [1] = biological target: T1, human GPC3 (Glypican-3) (human, UniProt P51654 25-580); assay: FACS on HepG2 cells
T1 construct: whole, on cells; the cell line is named under assay or readout

human GPC3 (Glypican-3) [2] = biological target: T1, human GPC3 (Glypican-3); assay: FACS on Huh-7 cells
human GPC3 (Glypican-3) [3] = biological target: T1, human GPC3 (Glypican-3); assay: FACS on HepG2 cells; remark: listed apart in the source
human GPC3 (Glypican-3) [4] = biological target: T1, human GPC3 (Glypican-3); assay: cell-based or functional assay
human GPC3 (Glypican-3) [5] = biological target: T1, human GPC3 (Glypican-3); assay: FACS on HepG2 cells, top of the fitted fluorescence curve
human GPC3 (Glypican-3) [6] = biological target: T1, human GPC3 (Glypican-3); assay: FACS on CHO-K1 cells overexpressing human GPC3 (GPC3-CHO-K1)
human GPC3 (Glypican-3) [7] = biological target: T1, human GPC3 (Glypican-3); assay: cell-based or functional assay; remark: listed apart in the source
human GPC3 (Glypican-3) [8] = biological target: T1, human GPC3 (Glypican-3); assay: cell-based or functional assay; remark: listed apart in the source

Binder	EC50 (human GPC3 (Glypican-3) [1]) [nM]	EC50 (human GPC3 (Glypican-3) [2]) [nM]	EC50 (human GPC3 (Glypican-3) [3]) [µg/mL]	Percentage reduction of GPC3 on cell surface (%), Huh7 cells, 2 h at 37°C against ice, FACS (human GPC3 (Glypican-3) [4]) [%]	Top (human GPC3 (Glypican-3) [5])	EC50 (human GPC3 (Glypican-3) [6]) [nM]	EC50 value of cytotoxicity, HepG2 cells (96 h, PrestoBlue) (human GPC3 (Glypican-3) [7]) [µg/mL]	EC50 value of cytotoxicity, Huh7 cells (96 h, PrestoBlue) (human GPC3 (Glypican-3) [7]) [µg/mL]	internalization on HepG2 cells (pHAb dye-labelled anti-hIgG secondary antibody, 48 h): EC50 (human GPC3 (Glypican-3) [8]) [µg/mL]	internalization on HepG2 cells (pHAb dye-labelled anti-hIgG secondary antibody, 48 h): Top (human GPC3 (Glypican-3) [8])
GC33 antibody (Chugai Pharmaceutical) (antibody, V domains shown, Control antibody, prepared as in US 7919086 B2; Whole antibody; Detected with anti-human IgG) VH: QVQLVQSGAEVKKPGASVKVSCKASGYTFTDYEMHWVRQAPGQGLEWMGALDPKTGDTAYSQKFKGRVTLTADKSTSTAYMELSSLTSEDTAVYYCTRFYSYTYWGQGTLVTVSS VL: DVVMTQSPLSLPVTPGEPASISCRSSQSLVHSNGNTYLHWYLQKPGQSPQLLIYKVSNRFSGVPDRFSGSGSGTDFTLKISRVEAEDVGVYYCSQNTHVPPTFGQGTKLEIK	0.745	0.953	0.269	60	64100	0.956				
GC33-ZLA (antibody, V domains shown, ZLA linker-payload on cysteine thiols of the antibody freed by TCEP reduction of disulfide bonds; positions not given, Whole antibody; also called GC33 ADC; Anti-GPC3-ZLA) VH: QVQLVQSGAEVKKPGASVKVSCKASGYTFTDYEMHWVRQAPGQGLEWMGALDPKTGDTAYSQKFKGRVTLTADKSTSTAYMELSSLTSEDTAVYYCTRFYSYTYWGQGTLVTVSS VL: DVVMTQSPLSLPVTPGEPASISCRSSQSLVHSNGNTYLHWYLQKPGQSPQLLIYKVSNRFSGVPDRFSGSGSGTDFTLKISRVEAEDVGVYYCSQNTHVPPTFGQGTKLEIK			0.143	59	68000		0.0892	0.0148		
GC33-L4-D4 (antibody, V domains shown, MC-MMAF (L4-D4) on cysteine thiols of the antibody freed by TCEP reduction of disulfide bonds; positions not given, Whole antibody; also called GC33 ADC; Anti-GPC3-L4-D4) VH: QVQLVQSGAEVKKPGASVKVSCKASGYTFTDYEMHWVRQAPGQGLEWMGALDPKTGDTAYSQKFKGRVTLTADKSTSTAYMELSSLTSEDTAVYYCTRFYSYTYWGQGTLVTVSS VL: DVVMTQSPLSLPVTPGEPASISCRSSQSLVHSNGNTYLHWYLQKPGQSPQLLIYKVSNRFSGVPDRFSGSGSGTDFTLKISRVEAEDVGVYYCSQNTHVPPTFGQGTKLEIK			0.112	61.3	60200			0.00882		
GC33-L3-D3 (antibody, V domains shown, MA-PEG4-VC-PAB-DMEA-Duocarmycin SA (L3-D3) on cysteine thiols of the antibody freed by TCEP reduction of disulfide bonds; positions not given) VH: QVQLVQSGAEVKKPGASVKVSCKASGYTFTDYEMHWVRQAPGQGLEWMGALDPKTGDTAYSQKFKGRVTLTADKSTSTAYMELSSLTSEDTAVYYCTRFYSYTYWGQGTLVTVSS VL: DVVMTQSPLSLPVTPGEPASISCRSSQSLVHSNGNTYLHWYLQKPGQSPQLLIYKVSNRFSGVPDRFSGSGSGTDFTLKISRVEAEDVGVYYCSQNTHVPPTFGQGTKLEIK				59.9				0.0694		
Hu 52H5D3B8-8 (antibody, human IgG1, kappa, V domains shown, also called humanized GPC3 antibody Hu 52H5D3B8-8) VH: EVQLVQSGAEVKKPGASVKVSCKASGYTFTDYEMHWVRQAPGQGLEWMGAIHPGSGGTAYNQKFKGRVTMTADKSISTAYMELSRLRSDDTAVYYCTRFYSYAYWGQGTLVTVSS VL: DVVMTQTPLSLSVTPGQPASISCRSSQSLVHSNGNTYLQWYLQKPGQSPQLLIYKVSNRFSGVPDRFSGSGSGTDFTLKISRVEAEDVGVYFCSQSIHVPYTFGGGTKVEIKR	0.351	0.418	0.0743	65.3	75000	0.411			0.78	62400
Y035 antibody (CARSGEN Therapeutics), humanized (antibody, V domains shown) VH: EVQLVQSGAEVKKPGASVKVSCKASGYTHSDYEMHWVRQAPGQGLEWMGAIHPGSGDTAYNQRFKGRVTITADKSTSTAYMELSSLRSEDTAVYYCARFYSYAYWGQGTLVTVSA VL: DIVMTQTPLSLPVTPGEPASISCRSSQSLVHSNGNTYLQWYLQKPGQSPQLLIYKVSNRFSGVPDRFSGSGSGTDFTLKISRVEAEDVGVYYCSQSIYVPYTFGQGTKLEIKR	1.25	1.18				1.46			1.08	52000
Hu 52H5D3B8-7-L1-D1 (antibody, human IgG1, kappa, V domains shown, MC-vc-PAB-MMAE (L1-D1) on cysteine thiols freed by TCEP reduction of disulfide bonds; positions not given) VH: EVQLVQSGAEVKKPGASVKVSCKASGYTFTDYEMHWVRQAPGQGLEWMGAIHPGSGGTAYNQKFKGRVTMTADKSISTAYMELSRLRSDDTAVYYCTRFYSYAYWGQGTLVTVSS VL: DVVMTQTPLSLSVTPGQPASISCRSSQSLVHSNGNTYLQWYLQKPGQSPQLLIYKVSNRFSGVPDRFSGSGSGTDFTLKISRVEAEDVGVYYCSQSIHVPYTFGGGTKVEIKR				70.8						
